Test results published in PMC9482650, “Quantitative fragmentomics allow affinity mapping of interactomes” (Nature Communications, 2022).

Molecular target: AHNAK1, Q09666
Experiment: holdup assay
Set-up: key: below the threshold = too weak to quantify, mostly under pKd 3.1 to 4
Conditions: plain residues with an end cap or a label only (N-terminal biotin on a linker: ado-ado)

Sequence of AHNAK1, Q09666 (Q09666 4-100): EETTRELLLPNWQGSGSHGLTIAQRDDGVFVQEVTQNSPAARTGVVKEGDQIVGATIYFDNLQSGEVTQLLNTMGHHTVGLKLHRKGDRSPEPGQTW

Binder	pKd
THREVKFTSL [CD46, P15529]	below the threshold

Molecular target: TJP1_2, Q07157
Experiment: holdup assay
Set-up: key: below the threshold = too weak to quantify, mostly under pKd 3.1 to 4
Conditions: plain residues with an end cap or a label only (N-terminal biotin on a linker: ado-ado)

Sequence of TJP1_2, Q07157 (Q07157 181-274): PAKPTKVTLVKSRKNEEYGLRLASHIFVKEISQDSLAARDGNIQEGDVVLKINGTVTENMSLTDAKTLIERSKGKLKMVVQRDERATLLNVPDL

Binder	pKd
THREVKFTSL [CD46, P15529]	below the threshold

Molecular target: LIMK2, P53671
Sequence (P53671 143-248): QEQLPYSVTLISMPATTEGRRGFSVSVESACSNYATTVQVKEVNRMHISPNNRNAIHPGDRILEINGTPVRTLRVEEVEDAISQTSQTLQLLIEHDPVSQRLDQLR
Experiment: holdup assay
Set-up: key: below the threshold = too weak to quantify, mostly under pKd 3.1 to 4
Conditions: plain residues with an end cap or a label only (N-terminal biotin on a linker: ado-ado)

Binder	pKd
THREVKFTSL [CD46, P15529]	below the threshold

Molecular target: T1, DVL3, Q92997
T1 sequence (Q92997 244-331, limits assumed, looked up): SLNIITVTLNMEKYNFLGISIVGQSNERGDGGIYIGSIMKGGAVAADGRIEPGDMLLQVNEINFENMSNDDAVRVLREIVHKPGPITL
Experiment: holdup assay
Set-up: key: below the threshold = too weak to quantify, mostly under pKd 3.1 to 4
Conditions: plain residues with an end cap or a label only (N-terminal biotin on a linker: ado-ado)

Binder	pKd
THREVKFTSL [CD46, P15529]	below the threshold

Molecular target: T2, HTRA4, P83105
T2 sequence (P83105 378-476, limits assumed, looked up): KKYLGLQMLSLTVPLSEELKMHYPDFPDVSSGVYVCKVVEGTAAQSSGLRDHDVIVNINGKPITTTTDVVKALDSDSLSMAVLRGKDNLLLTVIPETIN
Experiment: holdup assay
Set-up: key: below the threshold = too weak to quantify, mostly under pKd 3.1 to 4
Conditions: plain residues with an end cap or a label only (N-terminal biotin on a linker: ado-ado)

Binder	pKd
THREVKFTSL [CD46, P15529]	below the threshold

Molecular target: T3, FRMPD1, Q5SYB0
T3 sequence (Q5SYB0 52-145, limits assumed, looked up): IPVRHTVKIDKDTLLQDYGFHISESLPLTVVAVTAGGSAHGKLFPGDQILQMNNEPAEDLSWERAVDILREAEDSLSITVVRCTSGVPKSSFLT
Experiment: holdup assay
Set-up: key: below the threshold = too weak to quantify, mostly under pKd 3.1 to 4
Conditions: plain residues with an end cap or a label only (N-terminal biotin on a linker: ado-ado)

Binder	pKd
THREVKFTSL [CD46, P15529]	below the threshold

Molecular target: GRIP2_3, Q9C0E4
Sequence (Q9C0E4 238-339): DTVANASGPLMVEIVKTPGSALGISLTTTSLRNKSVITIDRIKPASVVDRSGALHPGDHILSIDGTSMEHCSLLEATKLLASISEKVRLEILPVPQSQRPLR
Experiment: holdup assay
Set-up: key: below the threshold = too weak to quantify, mostly under pKd 3.1 to 4
Conditions: plain residues with an end cap or a label only (N-terminal biotin on a linker: ado-ado)

Binder	pKd
THREVKFTSL [CD46, P15529]	below the threshold

Molecular target: Inadl_3, Q8NI35
Sequence (Q8NI35 359-469): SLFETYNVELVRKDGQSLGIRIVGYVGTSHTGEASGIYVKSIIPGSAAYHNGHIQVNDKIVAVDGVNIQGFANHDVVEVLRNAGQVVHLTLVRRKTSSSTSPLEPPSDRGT
Experiment: holdup assay
Set-up: key: below the threshold = too weak to quantify, mostly under pKd 3.1 to 4
Conditions: plain residues with an end cap or a label only (N-terminal biotin on a linker: ado-ado)

Binder	pKd
THREVKFTSL [CD46, P15529]	below the threshold

Molecular target: ARHGEF12, Q9NZN5-2
Sequence (Q9NZN5 other isoform, or with tags, fused parts or gaps): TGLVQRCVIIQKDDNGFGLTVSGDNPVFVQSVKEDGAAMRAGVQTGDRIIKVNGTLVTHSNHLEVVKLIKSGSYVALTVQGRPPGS
Experiment: holdup assay
Set-up: key: below the threshold = too weak to quantify, mostly under pKd 3.1 to 4
Conditions: plain residues with an end cap or a label only (N-terminal biotin on a linker: ado-ado)

Binder	pKd
THREVKFTSL [CD46, P15529]	5.37

Molecular target: T4, APBA2_1, Q99767
T4 sequence (Q99767 563-664, limits assumed, looked up): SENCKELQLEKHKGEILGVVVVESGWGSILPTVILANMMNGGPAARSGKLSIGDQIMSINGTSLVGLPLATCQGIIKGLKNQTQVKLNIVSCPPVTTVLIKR
Experiment: holdup assay
Set-up: key: below the threshold = too weak to quantify, mostly under pKd 3.1 to 4
Conditions: plain residues with an end cap or a label only (N-terminal biotin on a linker: ado-ado)

Binder	pKd
THREVKFTSL [CD46, P15529]	below the threshold

Molecular target: T5, GRIP1_7, Q9Y3R0
T5 sequence (Q9Y3R0 999-1096, limits assumed, looked up): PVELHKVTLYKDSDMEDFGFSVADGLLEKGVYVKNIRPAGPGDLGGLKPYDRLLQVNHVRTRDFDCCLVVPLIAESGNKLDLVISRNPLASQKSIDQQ
Experiment: holdup assay
Set-up: key: below the threshold = too weak to quantify, mostly under pKd 3.1 to 4
Conditions: plain residues with an end cap or a label only (N-terminal biotin on a linker: ado-ado)

Binder	pKd
THREVKFTSL [CD46, P15529]	below the threshold

Molecular target: SCRIB_1, Q14160
Sequence (Q14160 718-814): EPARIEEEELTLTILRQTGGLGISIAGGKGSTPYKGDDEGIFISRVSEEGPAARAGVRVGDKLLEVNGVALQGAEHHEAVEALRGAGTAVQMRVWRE
Experiment: holdup assay
Set-up: key: below the threshold = too weak to quantify, mostly under pKd 3.1 to 4
Conditions: plain residues with an end cap or a label only (N-terminal biotin on a linker: ado-ado)

Binder	pKd
THREVKFTSL [CD46, P15529]	4.95

Molecular target: T6, SNTG1, Q9NSN8
T6 sequence (Q9NSN8 52-150, limits assumed, looked up): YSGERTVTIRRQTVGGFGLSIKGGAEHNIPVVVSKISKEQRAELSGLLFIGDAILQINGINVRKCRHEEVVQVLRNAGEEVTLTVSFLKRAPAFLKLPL
Experiment: holdup assay
Set-up: key: below the threshold = too weak to quantify, mostly under pKd 3.1 to 4
Conditions: plain residues with an end cap or a label only (N-terminal biotin on a linker: ado-ado)

Binder	pKd
THREVKFTSL [CD46, P15529]	below the threshold

Molecular target: MAST2, Q6P0Q8
Sequence (Q6P0Q8 1099-1202): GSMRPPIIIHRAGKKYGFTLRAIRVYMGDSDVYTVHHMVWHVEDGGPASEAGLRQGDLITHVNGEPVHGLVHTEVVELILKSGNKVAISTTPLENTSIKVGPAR
Experiment: holdup assay
Set-up: key: below the threshold = too weak to quantify, mostly under pKd 3.1 to 4
Conditions: plain residues with an end cap or a label only (N-terminal biotin on a linker: ado-ado)

Binder	pKd
THREVKFTSL [CD46, P15529]	5.57

Molecular target: T7, CARD11, Q9BXL7
T7 sequence (Q9BXL7 662-765, limits assumed, looked up): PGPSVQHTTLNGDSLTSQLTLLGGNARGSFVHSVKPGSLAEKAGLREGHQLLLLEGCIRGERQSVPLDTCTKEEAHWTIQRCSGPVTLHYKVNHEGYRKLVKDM
Experiment: holdup assay
Set-up: key: below the threshold = too weak to quantify, mostly under pKd 3.1 to 4
Conditions: plain residues with an end cap or a label only (N-terminal biotin on a linker: ado-ado)

Binder	pKd
THREVKFTSL [CD46, P15529]	below the threshold

Molecular target: T8, APBA2_2, Q99767
T8 sequence (Q99767 654-744, limits assumed, looked up): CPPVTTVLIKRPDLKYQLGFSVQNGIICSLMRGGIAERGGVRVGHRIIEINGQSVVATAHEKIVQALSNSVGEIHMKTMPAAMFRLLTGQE
Experiment: holdup assay
Set-up: key: below the threshold = too weak to quantify, mostly under pKd 3.1 to 4
Conditions: plain residues with an end cap or a label only (N-terminal biotin on a linker: ado-ado)

Binder	pKd
THREVKFTSL [CD46, P15529]	below the threshold

Molecular target: T9, MPP2, Q14168
T9 sequence (Q14168 180-250, limits assumed, looked up): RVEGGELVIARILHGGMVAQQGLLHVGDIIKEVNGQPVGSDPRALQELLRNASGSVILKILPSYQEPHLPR
Experiment: holdup assay
Set-up: key: below the threshold = too weak to quantify, mostly under pKd 3.1 to 4
Conditions: plain residues with an end cap or a label only (N-terminal biotin on a linker: ado-ado)

Binder	pKd
THREVKFTSL [CD46, P15529]	below the threshold

Molecular target: T10, TIAM2, Q8IVF5
T10 sequence (Q8IVF5 885-986, limits assumed, looked up): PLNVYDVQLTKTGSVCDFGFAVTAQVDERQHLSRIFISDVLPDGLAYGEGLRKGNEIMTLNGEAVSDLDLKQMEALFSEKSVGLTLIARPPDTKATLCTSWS
Experiment: holdup assay
Set-up: key: below the threshold = too weak to quantify, mostly under pKd 3.1 to 4
Conditions: plain residues with an end cap or a label only (N-terminal biotin on a linker: ado-ado)

Binder	pKd
THREVKFTSL [CD46, P15529]	4.06

Molecular target: T11, PDZD7_3, Q9H5P4
T11 sequence (Q9H5P4 857-944, limits assumed, looked up): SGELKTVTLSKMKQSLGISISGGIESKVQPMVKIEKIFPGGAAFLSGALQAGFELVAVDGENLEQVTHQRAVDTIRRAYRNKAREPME
Experiment: holdup assay
Set-up: key: below the threshold = too weak to quantify, mostly under pKd 3.1 to 4
Conditions: plain residues with an end cap or a label only (N-terminal biotin on a linker: ado-ado)

Binder	pKd
THREVKFTSL [CD46, P15529]	4.75

Molecular target: T12, MPP7, Q5T2T1
T12 sequence (Q5T2T1 134-230, limits assumed, looked up): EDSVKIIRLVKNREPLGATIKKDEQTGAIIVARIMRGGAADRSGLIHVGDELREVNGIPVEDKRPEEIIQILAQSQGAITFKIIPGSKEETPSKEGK
Experiment: holdup assay
Set-up: key: below the threshold = too weak to quantify, mostly under pKd 3.1 to 4
Conditions: plain residues with an end cap or a label only (N-terminal biotin on a linker: ado-ado)

Binder	pKd
THREVKFTSL [CD46, P15529]	below the threshold

Molecular target: T13, MPDZ_12, O75970
T13 sequence (O75970 1857-1958, limits assumed, looked up): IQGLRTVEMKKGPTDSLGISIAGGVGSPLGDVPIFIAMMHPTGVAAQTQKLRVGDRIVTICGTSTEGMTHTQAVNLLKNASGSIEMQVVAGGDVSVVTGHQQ
Experiment: holdup assay
Set-up: key: below the threshold = too weak to quantify, mostly under pKd 3.1 to 4
Conditions: plain residues with an end cap or a label only (N-terminal biotin on a linker: ado-ado)

Binder	pKd
THREVKFTSL [CD46, P15529]	below the threshold

Molecular target: T14, NHERF3_3, Q5T2W1
T14 sequence (Q5T2W1 238-333, limits assumed, looked up): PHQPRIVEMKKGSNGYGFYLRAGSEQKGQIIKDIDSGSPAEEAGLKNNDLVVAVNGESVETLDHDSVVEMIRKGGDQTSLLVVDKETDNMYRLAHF
Experiment: holdup assay
Set-up: key: below the threshold = too weak to quantify, mostly under pKd 3.1 to 4
Conditions: plain residues with an end cap or a label only (N-terminal biotin on a linker: ado-ado)

Binder	pKd
THREVKFTSL [CD46, P15529]	below the threshold

Molecular target: T15, LNX2_2, Q8N448
T15 sequence (Q8N448 334-432, limits assumed, looked up): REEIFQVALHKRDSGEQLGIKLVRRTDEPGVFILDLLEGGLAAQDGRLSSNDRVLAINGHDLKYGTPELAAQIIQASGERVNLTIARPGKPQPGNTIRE
Experiment: holdup assay
Set-up: key: below the threshold = too weak to quantify, mostly under pKd 3.1 to 4
Conditions: plain residues with an end cap or a label only (N-terminal biotin on a linker: ado-ado)

Binder	pKd
THREVKFTSL [CD46, P15529]	below the threshold
